A word on the stoichiometry N: it is a count of units in the complex or per binding partner. A word on the Kd: it is the free concentration of one partner at which half of the binding sites on the other are occupied at equilibrium, for simple one-to-one binding. A lower Kd goes with tighter binding.

In PMC8635433 one finds stoichiometry N, Kd and fold higher IC50 (reference not named: HAdV-C5 or ChAdOx1 fiber knob) data, which are given here for seven substances.

For experiment [1], the target named is ChAdOx1 fiber knob protein (chimpanzee adenovirus Y25). Description: crystal structure; ChAdOx1 fiber knob, P1, 1.59 Å, four trimers in the asymmetric unit.
The target in experiment [2] is coxsackie and adenovirus receptor (CAR), immobilised for SPR (UniProt P78310). Description: SPR; BIAcore T200; about 2000 RU of CAR, DSG2 and CD46 amine-coupled to a CM5 chip; fiber knob proteins flowed over, 1:2 serial dilutions; 25°C, PBS with 0.001% P20, 30 μl/min; 1:1 interaction model. (Surface plasmon resonance follows binding to a sensor surface in real time, without labels.)

The target of experiment [3] is ChAdOx1 hexon (chimpanzee adenovirus Y25). Description: cryo-EM structure.
Experiment [4] deals with ChAdOx1 pIX (chimpanzee adenovirus Y25). Description: cryo-EM structure.
Experiment [5] addresses ChAdOx1 penton protein (chimpanzee adenovirus Y25). Description: cryo-EM structure.
The target of a further experiment is CAR on CHO-CAR cells (UniProt P78310). Description: flow cytometry on cells; antibody binding inhibition: serial dilutions of fiber knob (0.00001 to 100 μg per 10^5 cells) on CHO-CAR or CHO-BC1 cells, 30 min on ice, then anti-CAR RmcB or anti-CD46 MEM-258 and Alexa Fluor 488 secondary antibody; IC50 by nonlinear regression.
Sequence of CAR on CHO-CAR cells (P78310 20-365): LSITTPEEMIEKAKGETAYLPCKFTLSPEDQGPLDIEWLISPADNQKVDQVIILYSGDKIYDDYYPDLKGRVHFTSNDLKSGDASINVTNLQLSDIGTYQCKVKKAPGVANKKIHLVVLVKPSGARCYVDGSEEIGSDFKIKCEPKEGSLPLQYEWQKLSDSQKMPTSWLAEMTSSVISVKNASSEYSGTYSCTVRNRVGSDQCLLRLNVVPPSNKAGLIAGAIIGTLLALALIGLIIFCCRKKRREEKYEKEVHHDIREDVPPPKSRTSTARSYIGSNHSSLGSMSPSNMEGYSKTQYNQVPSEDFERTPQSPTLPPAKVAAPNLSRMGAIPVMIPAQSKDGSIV
Experiment [6] deals with AZD1222 vaccine preparation of ChAdOx1 (ChAdOx1 nCoV-19) (chimpanzee adenovirus Y25). Description: SPR.
Experiment [7] concerns the target human adenovirus type 26 (HAdV-D26) viral vector (virus particle) (human adenovirus type 26). Description: SPR.
Experiment [8] deals with human adenovirus type 5 (HAdV-C5) viral vector (virus particle) (human adenovirus type 5) (UniProt P04133). Description: SPR.

Consider “ChAdOx1 fiber knob protein (domain or fragment)”, for which the stoichiometry N in [1] came out at 3.

The substance “ChAdOx1 fiber knob protein (domain or fragment; other documents disagree on this pair)” had a Kd in [2] of 0.00716 µM.

Turning to ChAdOx1 hexon (natural protein), in experiment [3], the stoichiometry N came to 3.

Take ChAdOx1 pIX (natural protein): in experiment [4], the stoichiometry N stood at 4.

With “ChAdOx1 penton protein (natural protein)”, the stoichiometry N in [5] was 5.

As for “HAdV-B35 fiber knob protein (domain or fragment)”, the fold higher IC50 (reference not named: HAdV-C5 or ChAdOx1 fiber knob) with CAR on CHO-CAR cells is > 1000 fold.

On to “platelet factor 4 (PF4) (natural protein)”, for which the Kd worked out at 0.514 µM in [6], 0.301 µM in experiment [7] and 0.789 µM in experiment [8].
